This assay has as its target αCD123. Briefly: SPR.

B1: CD123 extracellular domain (domain or fragment)
chain: TKEDPNPPITNLRMKAKAQQLTWDLNRNVTDIECVKDADYSMPAVNNSYCQFGAISLCEVTNYTVRVANPPFSTWILFPENSGKPWAGAENLTCWIHDVDFLSCSWAVGPGAPADVQYDLYLNVANRRQQYECLHYKTDAQGTRIGCRFDDISRLSSGSQSSHILVRGRSAAFGIPCTDKFVVFSQIEILTPPNMTAKCNKTHSFMHWKMRSHFNRKFRYELQIQKRMQPVITEQVRDRTSFQLLNPGTYTVQIRARERVYEFLSAWSTPQRFECDQEEGANTRAWR
B1: the Kd was determined as 1.2 nM.

The values are drawn from article PMC8477557 (2021).
